{"source": "paper PMC5021285", "molecules": {"B1": {"name": "FgαCC8 (C-terminal 23 amino acids of the fibrinogen α chain), P02671-2 K620A (peptide)", "chain": "MADEAGSEADHEGTHSTARGHAK"}, "B2": {"name": "FgαCC8 (C-terminal 23 amino acids of the fibrinogen α chain), P02671-2 K606A (peptide)", "chain": "GHAASRPVRGIHTSPLGKPSLSP"}, "B3": {"name": "FgαCC8 (C-terminal 23 amino acids of the fibrinogen α chain), P02671-2 V610A (peptide)", "chain": "GHAKSRPARGIHTSPLGKPSLSP"}}, "key": {"Factor XIII (FXIII) [1]": {"biological_target": "Factor XIII (FXIII) (UniProt P00488)", "sequence (P00488 whole entry, chain 1 of 2)": "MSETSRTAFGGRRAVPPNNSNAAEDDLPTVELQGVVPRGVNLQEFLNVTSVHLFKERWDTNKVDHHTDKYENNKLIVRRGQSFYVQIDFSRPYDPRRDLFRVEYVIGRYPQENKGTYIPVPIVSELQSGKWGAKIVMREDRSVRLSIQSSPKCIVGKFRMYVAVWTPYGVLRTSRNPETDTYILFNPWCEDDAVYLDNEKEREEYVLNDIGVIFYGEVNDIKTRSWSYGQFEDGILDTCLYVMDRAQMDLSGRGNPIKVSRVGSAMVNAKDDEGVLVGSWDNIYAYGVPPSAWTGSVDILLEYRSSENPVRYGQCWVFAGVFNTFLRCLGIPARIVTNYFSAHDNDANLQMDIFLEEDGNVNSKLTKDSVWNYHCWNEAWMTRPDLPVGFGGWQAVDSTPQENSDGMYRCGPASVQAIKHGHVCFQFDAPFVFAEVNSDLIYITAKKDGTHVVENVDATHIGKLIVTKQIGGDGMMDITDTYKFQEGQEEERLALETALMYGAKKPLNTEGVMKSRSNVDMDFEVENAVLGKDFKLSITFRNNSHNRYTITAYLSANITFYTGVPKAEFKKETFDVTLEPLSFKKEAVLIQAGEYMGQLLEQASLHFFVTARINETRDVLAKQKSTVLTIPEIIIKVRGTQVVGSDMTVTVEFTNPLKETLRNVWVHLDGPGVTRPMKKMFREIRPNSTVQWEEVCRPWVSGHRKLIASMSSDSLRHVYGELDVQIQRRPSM", "sequence (P05160 21-661, chain 2 of 2, further chain)": "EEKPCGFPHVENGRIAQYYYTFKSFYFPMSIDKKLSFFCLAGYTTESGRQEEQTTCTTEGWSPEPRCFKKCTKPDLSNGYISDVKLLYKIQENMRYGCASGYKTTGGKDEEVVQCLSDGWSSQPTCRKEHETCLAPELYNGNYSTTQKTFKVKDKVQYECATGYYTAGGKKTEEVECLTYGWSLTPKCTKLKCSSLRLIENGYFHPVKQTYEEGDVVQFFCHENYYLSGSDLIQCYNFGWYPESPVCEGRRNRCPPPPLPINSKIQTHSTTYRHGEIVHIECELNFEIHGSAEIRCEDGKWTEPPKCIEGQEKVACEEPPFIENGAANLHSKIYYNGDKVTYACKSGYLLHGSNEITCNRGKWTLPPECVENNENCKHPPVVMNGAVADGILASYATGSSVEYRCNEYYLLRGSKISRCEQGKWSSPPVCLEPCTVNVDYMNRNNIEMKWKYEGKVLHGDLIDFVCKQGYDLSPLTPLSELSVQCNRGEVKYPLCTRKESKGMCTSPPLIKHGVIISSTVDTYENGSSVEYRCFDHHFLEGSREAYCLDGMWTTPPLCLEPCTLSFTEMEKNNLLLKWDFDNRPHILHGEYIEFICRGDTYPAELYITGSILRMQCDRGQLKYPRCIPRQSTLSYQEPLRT", "test": "ELISA; inhibition: FXIII coated; tag free LigB12 or LigB4 0-10 μM, 1 h 37°C, unbound washed off; then 1 μM His-Sumo FgαCC, 1 h 37°C; anti-His-HRP; binding relative to wells without LigB"}, "[2]": {"biological_target": "GST tagged FgαCC8, P02671-2", "test": "ELISA", "settings": "5 μM GST tagged FgαCC8 added to coated wells (1 μM/well); parent: est. 100; read off a plot"}, "[3]": {"biological_target": "LigB12, tag free (12th Ig-like domain of Leptospira immunoglobulin-like protein B) (Leptospira interrogans serovar Pomona)", "test": "SPR; Biacore 3000; tag free LigB12 amine-coupled to a CM5 chip (1000 RU); FgαCC truncates 0-3 μM in PBS, 30 μL/min, 25°C; 1:1 Langmuir model"}, "[4]": {"biological_target": "LigB12 A1065K (Leptospira interrogans serovar Pomona)", "test": "ELISA; LigB12 WT, mutants or BSA coated (1 μM/well); 5 μM GST-FgαCC8; anti-GST-HRP; relative binding (%) against WT"}, "[5]": {"biological_target": "LigB12 D1061N (Leptospira interrogans serovar Pomona)", "test": "ELISA; LigB12 WT, mutants or BSA coated (1 μM/well); 5 μM GST-FgαCC8; anti-GST-HRP; relative binding (%) against WT"}, "D1066A and E1088A": {"biological_target": "D1066A and E1088A", "test": "ELISA; LigB12 WT, mutants or BSA coated (1 μM/well); 5 μM GST-FgαCC8; anti-GST-HRP; relative binding (%) against WT"}, "[6]": {"biological_target": "LigB12 F1054A (Leptospira interrogans serovar Pomona)", "test": "ELISA; LigB12 WT, mutants or BSA coated (1 μM/well); 5 μM GST-FgαCC8; anti-GST-HRP; relative binding (%) against WT"}, "[7]": {"biological_target": "FgαCC (C-terminal region of the fibrinogen αC domain) (human) (UniProt P02671)", "test": "ELISA; 1 μM FgαCC, FgαCC truncates or BSA coated on microtiter wells; GST-LigB12 0-3 μM, 1 h 37°C; anti-GST-HRP; KD = EC50 of a dose-response fit"}, "[8]": {"biological_target": "FgαCC8 (C-terminal 23 amino acids of the fibrinogen α chain) (human) (UniProt P02671)", "test": "ELISA; 1 μM FgαCC, FgαCC truncates or BSA coated on microtiter wells; GST-LigB12 0-3 μM, 1 h 37°C; anti-GST-HRP; KD = EC50 of a dose-response fit"}, "FgαCC3 (human)": {"biological_target": "FgαCC3 (human) (UniProt P02671)", "test": "ELISA; 1 μM FgαCC, FgαCC truncates or BSA coated on microtiter wells; GST-LigB12 0-3 μM, 1 h 37°C; anti-GST-HRP; KD = EC50 of a dose-response fit"}, "FgαCC5 (human)": {"biological_target": "FgαCC5 (human) (UniProt P02671)", "test": "ELISA; 1 μM FgαCC, FgαCC truncates or BSA coated on microtiter wells; GST-LigB12 0-3 μM, 1 h 37°C; anti-GST-HRP; KD = EC50 of a dose-response fit"}, "FgαCC2 (human)": {"biological_target": "FgαCC2 (human) (UniProt P02671)", "test": "ELISA; 1 μM FgαCC, FgαCC truncates or BSA coated on microtiter wells; GST-LigB12 0-3 μM, 1 h 37°C; anti-GST-HRP; KD = EC50 of a dose-response fit"}, "[9]": {"biological_target": "His-Sumo tagged FgαCC8 (human) (UniProt P02671)", "test": "ELISA; His-Sumo FgαCC8 captured by coated anti-His antibody; GST-LigB12 0-5 μM in phosphate buffer pH 6, 75 mM NaCl; anti-GST-HRP"}, "[10]": {"biological_target": "His-Sumo tagged FgαCC8 (human) (UniProt P02671)", "test": "ELISA; His-Sumo FgαCC8 captured by coated anti-His antibody; GST-LigB12 0-5 μM in phosphate buffer pH 5, 150 mM NaCl; anti-GST-HRP"}, "[11]": {"biological_target": "His-Sumo tagged FgαCC8 (human) (UniProt P02671)", "test": "ELISA; His-Sumo FgαCC8 captured by coated anti-His antibody; GST-LigB12 0-5 μM in phosphate buffer pH 7, 150 mM NaCl; anti-GST-HRP (Fig 5A and Fig 5B)"}, "Factor XIII (FXIII) [12]": {"biological_target": "Factor XIII (FXIII) (UniProt P00488)", "test": "ELISA; FXIII, FgαCC8 (positive control) or BSA coated; GST-LigB12 0-3 μM; anti-GST-HRP"}, "[13]": {"biological_target": "His-Sumo tagged FgαCC8 (human) (UniProt P02671)", "test": "ELISA; His-Sumo FgαCC8 captured by coated anti-His antibody; GST-LigB12 0-5 μM in phosphate buffer pH 6, 1200 mM NaCl; anti-GST-HRP"}, "[14]": {"biological_target": "His-Sumo tagged FgαCC8 (human) (UniProt P02671)", "test": "ELISA; His-Sumo FgαCC8 captured by coated anti-His antibody; GST-LigB12 0-5 μM in phosphate buffer pH 7, 1200 mM NaCl; anti-GST-HRP"}, "FgαCC8 L618A (human)": {"biological_target": "FgαCC8 L618A (human) (UniProt P02671)", "test": "ELISA; FgαCC8 WT, alanine mutants or BSA coated (1 μM/well); 5 μM GST-LigB12; anti-GST-HRP; relative binding (%) against WT"}, "FgαCC8 H614A (human)": {"biological_target": "FgαCC8 H614A (human) (UniProt P02671)", "test": "ELISA; FgαCC8 WT, alanine mutants or BSA coated (1 μM/well); 5 μM GST-LigB12; anti-GST-HRP; relative binding (%) against WT"}, "FgαCC8 I613A (human)": {"biological_target": "FgαCC8 I613A (human) (UniProt P02671)", "test": "ELISA; FgαCC8 WT, alanine mutants or BSA coated (1 μM/well); 5 μM GST-LigB12; anti-GST-HRP; relative binding (%) against WT"}, "FgαCC8 R608A (human)": {"biological_target": "FgαCC8 R608A (human) (UniProt P02671)", "test": "ELISA; FgαCC8 WT, alanine mutants or BSA coated (1 μM/well); 5 μM GST-LigB12; anti-GST-HRP; relative binding (%) against WT"}, "FgαCC8 R611A (human)": {"biological_target": "FgαCC8 R611A (human) (UniProt P02671)", "test": "ELISA; FgαCC8 WT, alanine mutants or BSA coated (1 μM/well); 5 μM GST-LigB12; anti-GST-HRP; relative binding (%) against WT"}, "[15]": {"biological_target": "His-Sumo tagged FgαCC8 (human) (UniProt P02671)", "test": "ELISA; His-Sumo FgαCC8 captured by coated anti-His antibody; GST-LigB12 0-5 μM in phosphate buffer pH 6, 150 mM NaCl; anti-GST-HRP"}, "[16]": {"biological_target": "His-Sumo tagged FgαCC8 (human) (UniProt P02671)", "test": "ELISA; His-Sumo FgαCC8 captured by coated anti-His antibody; GST-LigB12 0-5 μM in phosphate buffer pH 7, 75 mM NaCl; anti-GST-HRP"}, "[17]": {"biological_target": "T1, GST tagged LigB12 (12th Ig-like domain of Leptospira immunoglobulin-like protein B)", "T1 chain": "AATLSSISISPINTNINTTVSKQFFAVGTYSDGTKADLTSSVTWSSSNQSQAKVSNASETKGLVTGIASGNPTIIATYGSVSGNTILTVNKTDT", "test": "ELISA", "settings": "chain shown with the change; 5 μM GST tagged LigB12 added to coated wells (1 μM/well); parent: est. 100; read off a plot"}}, "note": "Several values for one entry are separate records, joined by “and”; a condition that tells them apart may be missing. Identical values can stand only once."}
{"molecule": "LigB12, tag free (12th Ig-like domain of Leptospira immunoglobulin-like protein B) (domain or fragment)", "values": [{"measurement": "percent reduction of FgαCC binding to FXIII at high LigB12 concentrations (fit of the dose inhibition curve)", "setting": "Factor XIII (FXIII) [1]", "value": 56.7, "unit": "%"}]}
{"molecule": "LigB12, tag free (12th Ig-like domain of Leptospira immunoglobulin-like protein B) E1088A", "values": [{"measurement": "percent of parent", "setting": "[2]", "value": "90 % of WT"}]}
{"molecule": "FgαCC5 (from UniProt P02671-2 579-644) (domain or fragment)", "values": [{"measurement": "Kd", "setting": "[3]", "value": 1040, "unit": "nM"}, {"measurement": "koff", "setting": "[3]", "value": 0.0384, "unit": "s⁻¹"}, {"measurement": "kon", "setting": "[3]", "value": 36900, "unit": "M⁻¹ s⁻¹"}]}
{"molecule": "LigB12, tag free (12th Ig-like domain of Leptospira immunoglobulin-like protein B) D1066A", "values": [{"measurement": "percent of parent", "setting": "[2]", "value": "88 % of WT"}]}
{"molecule": "FgαCC3 (from UniProt P02671-2 526-644) (domain or fragment)", "values": [{"measurement": "Kd", "setting": "[3]", "value": 704, "unit": "nM"}, {"measurement": "koff", "setting": "[3]", "value": 0.0339, "unit": "s⁻¹"}, {"measurement": "kon", "setting": "[3]", "value": 48100, "unit": "M⁻¹ s⁻¹"}]}
{"molecule": "GST tagged FgαCC8 (from UniProt P02671-2 622-644) (domain or fragment)", "values": [{"measurement": "percent reduction of binding relative to WT", "setting": "[4]", "value": 46, "unit": "%"}, {"measurement": "percent reduction of binding relative to WT", "setting": "[5]", "value": "> 30", "unit": "%"}, {"measurement": "percent reduction of binding relative to WT", "setting": "D1066A and E1088A", "value": "10 to 12", "unit": "%"}, {"measurement": "percent reduction of binding relative to WT", "setting": "[6]", "value": 51, "unit": "%"}]}
{"molecule": "LigB12, tag free (12th Ig-like domain of Leptospira immunoglobulin-like protein B) P1040C; F1053C", "values": [{"measurement": "percent of parent", "setting": "[2]", "value": "96 % of WT"}]}
{"molecule": "FgαCC8 (C-terminal 23 amino acids of the fibrinogen α chain) (from UniProt P02671-2 622-644) (domain or fragment)", "values": [{"measurement": "Kd", "setting": "[3]", "value": 959, "unit": "nM"}, {"measurement": "koff", "setting": "[3]", "value": 0.0357, "unit": "s⁻¹"}, {"measurement": "kon", "setting": "[3]", "value": 37200, "unit": "M⁻¹ s⁻¹"}]}
{"molecule": "GST tagged LigB12 (12th Ig-like domain of Leptospira immunoglobulin-like protein B) (domain or fragment)", "values": [{"measurement": "Kd", "setting": "[7]", "value": 370, "unit": "nM"}, {"measurement": "Kd", "setting": "[8]", "value": 760, "unit": "nM"}, {"measurement": "Kd", "setting": "FgαCC3 (human)", "value": 510, "unit": "nM"}, {"measurement": "Kd", "setting": "FgαCC5 (human)", "value": 580, "unit": "nM"}, {"measurement": "fold over the negative control (BSA) at 3 μM LigB12", "setting": "FgαCC2 (human)", "value": 2.5, "unit": "fold"}, {"measurement": "Kd", "setting": "[9]", "value": 1290, "unit": "nM"}, {"measurement": "Kd", "setting": "[10]", "value": 1830, "unit": "nM"}, {"measurement": "Kd", "setting": "[11]", "value": "820 nM and 620 nM"}, {"measurement": "Kd", "setting": "Factor XIII (FXIII) [12]", "value": 150, "unit": "nM"}, {"measurement": "Kd", "setting": "[13]", "value": 220, "unit": "nM"}, {"measurement": "Kd", "setting": "[14]", "value": 6.61, "unit": "µM"}, {"measurement": "percent reduction of binding relative to WT", "setting": "FgαCC8 L618A (human)", "value": 12, "unit": "%"}, {"measurement": "percent reduction of binding relative to WT", "setting": "FgαCC8 H614A (human)", "value": 50, "unit": "%"}, {"measurement": "percent reduction of binding relative to WT", "setting": "FgαCC8 I613A (human)", "value": 47, "unit": "%"}, {"measurement": "percent reduction of binding relative to WT", "setting": "FgαCC8 R608A (human)", "value": "> 60", "unit": "%"}, {"measurement": "percent reduction of binding relative to WT", "setting": "FgαCC8 R611A (human)", "value": "> 60", "unit": "%"}, {"measurement": "Kd", "setting": "[15]", "value": 470, "unit": "nM"}, {"measurement": "Kd", "setting": "[16]", "value": 460, "unit": "nM"}]}
{"molecule": "B1", "values": [{"measurement": "percent of parent", "setting": "[17]", "value": "77 % of WT"}]}
{"molecule": "B2", "values": [{"measurement": "percent of parent", "setting": "[17]", "value": "78 % of WT"}]}
{"molecule": "B3", "values": [{"measurement": "percent of parent", "setting": "[17]", "value": "99 % of WT"}]}
